Data as given in paper doi:10.1101/2021.01.28.428001 (bioRxiv, 2021).

B1: Nodal Modulator 1 (NOMO1), full length, with C-terminal FLAG tag (natural protein, human, UniProt Q15155 32-1222, looked up)
chain: SEDIVVGCGGFVKSDVEINYSLIEIKLYTKHGTLKYQTDCAPNNGYFMIPLYDKGDFILKIEPPLGWSFEPTTVELHVDGVSDICTKGGDINFVFTGFSVNGKVLSKGQPLGPAGVQVSLRNTGTEAKIQSTVTQPGGKFAFFKVLPGDYEILATHPTWALKEASTTVRVTNSNANAASPLIVAGYNVSGSVRSDGEPMKGVKFLLFSSLVTKEDVLGCNVSPVPGFQPQDESLVYLCYTVSREDGSFSFYSLPSGGYTVIPFYRGERITFDVAPSRLDFTVEHDSLKIEPVFHVMGFSVTGRVLNGPEGDGVPEAVVTLNNQIKVKTKADGSFRLENITTGTYTIHAQKEHLYFETVTIKIAPNTPQLADIIATGFSVCGQISIIRFPDTVKQMNKYKVVLSSQDKDKSLVTVETDAHGSFCFKAKPGTYKVQVMVPEAETRAGLTLKPQTFPLTVTNRPMMDVAFVQFLASVSGKVSCLDTCGDLLVTLQSLSRQGEKRSLQLSGKVNAMTFTFDNVLPGKYKISIMHEDWCWKNKSLEVEVLEDDMSAVEFRQTGYMLRCSLSHAITLEFYQDGNGRENVGIYNLSKGVNRFCLSKPGVYKVTPRSCHRFEQAFYTYDTSSPSILTLTAIRHHVLGTITTDKMMDVTVTIKSSIDSEPALVLGPLKSVQELRREQQLAEIEARRQEREKNGNEEGEERMTKPPVQEMVDELQGPFSYDFSYWARSGEKITVTPSSKELLFYPPSMEAVVSGESCPGKLIEIHGKAGLFLEGQIHPELEGVEIVISEKGASSPLITVFTDDKGAYSVGPLHSDLEYTVTSQKEGYVLTAVEGTIGDFKAYALAGVSFEIKAEDDQPLPGVLLSLSGGLFRSNLLTQDNGILTFSNLSPGQYYFKPMMKEFRFEPSSQMIEVQEGQNLKITITGYRTAYSCYGTVSSLNGEPEQGVAMEAVGQNDCSIYGEDTVTDEEGKFRLRGLLPGCVYHVQLKAEGNDHIERALPHHRVIEVGNNDIDDVNIIVFRQINQFDLSGNVITSSEYLPTLWVKLYKSENLDNPIQTVSLGQSLFFHFPPLLRDGENYVVLLDSTLPRSQYDYILPQVSFTAVGYHKHITLIFNPTRKLPEQDIAQGSYIALPLTLLVLLAGYNHDKLIPLLLQLTSRLQGVRALGQAASDNSGPEDAKRQAKKQKTRRT

Tests used:
[1] = target: 2xFLAG-MBP-CYT (cytosolic domain of NOMO1 fused to maltose binding protein) (human); experiment: SEC
SEC-MALS = target: the molecule itself; experiment: SEC-MALS

| Molecule | stoichiometry N [1] | stoichiometry N (SEC-MALS) |
| --- | --- | --- |
| 2xFLAG-MBP-CYT (cytosolic domain of NOMO1 fused to maltose binding protein) (domain or fragment) | 2 |  |
| B1 |  | 2 |
